# Source: patent US20190062425A1 (BETH ISRAEL DEACONESS MEDICAL CENTER, published 2019)
# T1: human transmembrane-4 L six family member-1 (TM4SF1), full-length (human, UniProt P30408 1-202, N-glycosylated at N129 and N159 (ECL2))
# T1 construct: whole, on cells; Four-transmembrane plasma membrane glycoprotein; It was tested on cells (HUVEC, transduced HDF and HEMn), in tissue sections and on immunoblots; also called FL-TM4SF1; FL
# T1 sequence (looked up): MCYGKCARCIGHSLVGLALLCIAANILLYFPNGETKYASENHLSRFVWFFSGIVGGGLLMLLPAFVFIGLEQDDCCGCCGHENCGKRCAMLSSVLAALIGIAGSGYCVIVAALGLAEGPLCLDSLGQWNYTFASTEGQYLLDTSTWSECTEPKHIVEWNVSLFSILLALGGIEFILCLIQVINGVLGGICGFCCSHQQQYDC
# Biological target: T1, human transmembrane-4 L six family …
# Experiment: method not stated
binder,measurement,value
"8G4 antibody (anti-TM4SF1 mouse monoclonal antibody produced by hybridoma mouse cell line 8G4-5-13-13F, PTA-120523) (antibody, V domains shown, Mouse monoclonal antibody from a hybridoma; both have the length of variable domains; also called anti-TM4SF1 antibody 8G4) VH: EVILVESGGGLVKPGGSLKLSCAASGFTFSSFAMSWVRQTPEKRLEWVATISSGSIYIYYTDGVKGRFTISRDNAKNTVHLQMSSLRSEDTAMYYCARRGIYYGYDGYAMDYWGQGTSVTVSS VL: AVVMTQTPLSLPVSLGDQASISCRSSQSLVHSNGNTYLHWYMQKPGQSPKVLIYKVSNRFSGVPDRFSGSGSGTDFTLKISRVEADDLGIYFCSQSTHIPLAFGAGTKLELK",Kd,~1 nM
